# Laboratory results taken from the nanobody polyreactivity screen of Harvey et al. (2022).
# Test: yeast display, Sf9 membrane polyspecificity reagent, FACS + sequencing; frameworks hold sequencing errors
# In short: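 Using colony PCR, genes from sorted yeast display clones were amplified, then sequenced on MiSeq at 2 × 250 and filtered by CDR length. The clones had been stained with 10% biotinylated, detergent-solubilized Sf9 membrane reagent for 1 hour at 4 °C and sorted by FACS into low and high (top ~1%) gates on anti-HA and streptavidin fluorescence. Polyreactivity labels come from the gate of origin.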
row,Sequence,polyreactivity (PSR sort gate)
1,QVQLVESGGGLVQAGGSLRLSCAASGSPSQPYAMGWYRQAPGKVRELVASITNGGITYYADSVKGRFPISRDNANNTVELQMNSLKPEDTAVYYCARTGPSAYWEFDYWGQGTQVTVSS,low polyreactivity
2,QVQLVESGGGLVQAGGSLRLSCAASGSPSYFNVKGWYRQAPGKERQLVAAISWSGGSTYADSVKGRFTISRDNAKNTVYLQMNSLKREDTAFYYCNKDYGYVQLRFYCPGYYWGQGTQVTVSS,low polyreactivity
3,QVQLVESGGGLVQAGGSLRLSCAASGSSFEPNAMGWYRQAPGKERELVASITSSGGNTYYADSVKGRFTISRDNAKNTVYLQMNSLKPEDTAVYSCAAGSGYAFGGYYLWGFGYWGQGTQVTVSS,low polyreactivity
4,QVQLVESGGGLVQAGGSLRLSCAASGSSFRRYAMGWSRQAPGKERELVASITASGGSTYYADSVKGRFTISRDNAKNTVYLQMNSLKAEDTAVYYCNKDTIKSYYRRYDSWGQGTQVTVSS,low polyreactivity
5,QVQLVESGGGLVQAGGSLRLSCAASGSSFTWYAMGWYRQAPGKERELVAAITRGGSTYADSVKGRFTISRDNAKNTVYLQMNSLKPEDTAVYYCNAVYGVYDFNYWGQGTQVTVSS,low polyreactivity
6,QVQLVESGGGLVQAGGSLRLSCAASGSTAYVMGWYRQAPGKETELVAAISKSGGSTYYADSVKGRFTISRDNAKNTVYLQMNSLKPEDTAVYYCSALYPTTTAYRYGYWGQGTQVTVSS,high polyreactivity
7,QVQLVESGGGLVQAGGSLRLSCAASGSTCGTNAMGWYRQAPGKERELVAAITWSGGRTYYADSVKGRFTISRDNAKNTVYLQMISLKPEDTAVYYCNAGYSYRRRNGYGYDYWGQGTQVTVSS,high polyreactivity
8,QVQLVESGGGLVQAGGSLRLSCAASGSTFAANTMGWYRQAPGKERELVAAITVRGGSTYYADSVKGRFTISRDNAKNTVYLLMQSLKPEDTAVYYCAAERPPYGYLVVGYVSTQYYYWGQGTQVTVSS,low polyreactivity
9,QVQLVESGGGLVQAGGSLRLSCAASGSTFAFNAMGWYRQAPGQERELVAGITWSSGSTYYADSVKGRFTISRDNAKNTVYLQMNSLKPEDTAVYYCNVQSVHFRLWKDNYWGQGTQVTVSS,high polyreactivity
10,QVQLVESGGGLVQAGGSLRLSCAASGSTFAFYAMGWYRQAPGKERELVAAITWRVGSTYYADSVKGRFTISRDNAKNTVYLQMNSLKPEDTAVYYCAVDIPFYDSDYWGQGTQVTVSS,low polyreactivity
11,QVQLVESGGGLVQAGGSLRLSCAASGSTFAGNAMGWYRQAPGKERELFAAITFSGGRTDYADSVKGRFTISRDNAKNTVYLQMNSLKPEDTAVYYCAAPADVTVHYLNYYWGQGTQVTVSS,low polyreactivity
12,QVQLVESGGGLVQAGGSLRLSCAASGSTFAGNPMGWYRQATGKERELVAAIDSSTGSTYYADSVKGRFTISRDNAMNTVYLQMNSLKPEDTAVYYCNKTSFLVKLDYWGQGTQVTVSS,low polyreactivity
13,QVQLVESGGGLVQAGGSLRLSCAASGSTFAGYAMGWYRQAPGKERELVAAIRSGGSTYYADSVKGRFTISRDNAKNTVYLQMNSLKPEDTAVYYCNAVYAFNGYDYWGQVTQVTVSS,low polyreactivity
14,QVQLVESGGGLVQAGGSLRLSCAASGSTFAGYAMGWYRQAPGKERELVAAISWNGGSTYYADSVKGRFTISRDNAKNTVYLQMNSLKPEDTAVYYCAKARYYSWKGKGDYWGQGTQVTVSS,high polyreactivity
15,QVQLVESGGGLVQAGGSLRLSCAASGSTFAIYAMGWYRQAPGKERELVAAISKSGGSTYYADSVKGRFTISRDNAKNTVYLQMNILKPEDTAVYYCARRQYAFGPYGFYYWGQGTQVTVSS,high polyreactivity
16,QVQLVESGGGLVQAGGSLRLSCAASGSTFAKNAMGWYRQAPGKERELVAAITYSGGSTYYADSVKGRFTISRDYAKNTVYLEMYSLKPEYTAVYYCAADVWWSYFRYDYWGQGTQVTVSW,low polyreactivity
17,QVQLVESGGGLVQAGGSLRLSCAASGSTFALNAMGWYRQAPGKERELVAAITTGGHTYYADSVKGRFTISRDNAKNTDYLQMNSLKPEDTAVYYCATVFYFDYYYHYDYWGQGTQVTVSS,low polyreactivity
18,QVQLVESGGGLVQAGGSLRLSCAASGSTFALYTMGWYRQAPGKERELVAGITIDGSTNYADSVKGRFTISRDNAKNTVYLQMNSLKPEDTAVYYCNADSYKYPLLKYRSDYWGQGTQVTVSS,low polyreactivity
19,QVQLVESGGGLVQAGGSLRLSCAASGSTFANYAMGWYRQAPGKERELVAGISWRGGRTYYADSVKGRFTISRDNAKNTVYLQMNSLKPEDTAVYYCAAEVLKTRWSYDYWGQGTQVTVSS,high polyreactivity
20,QVQLVESGGGLVQAGGSLRLSCAASGSTFANYVMGWYRQAPGKEREVVAAISWTGGSTYYADSVKGRFTISRDNAKNTVYLQMHSLKPEDTAVYYCNAASYAWLWHPKSGLYDYWGQGTQVTVSS,low polyreactivity
21,QVQLVESGGGLVQAGGSLRLSCAASGSTFAPNAMGWYRQAPGKERELVAAISSGGDSTNYADYVKGRFTISRDNAKNTVYLQMNSLKPEDTAVYYCAHGYCFVAYDYWGQGTQVTVSS,low polyreactivity
22,QVQLVESGGGLVQAGGSLRLSCAASGSTFAQNAMGWYRQAPGKEREYVAAITGTVGSTYYADSVKGRFTISRDNAKNTVYLQMNSLKPEDTAVYYCNTRGFNGRVYPYDYWGQGTQVTVSS,low polyreactivity
23,QVQLVESGGGLVQAGGSLRLSCAASGSTFAQYAMGWYRQAPGKEREFVAAITRGGGRTYYADSVKGRFTISRDNAKNSVYLQMNSLKPEDTAVYYCNAVYRYYPFDYWGQGTQVTVSS,high polyreactivity
24,QVQLVESGGGLVQAGGSLRLSCAASGSTFAQYAMGWYRQPPRKERELVAAISRRGASTYYADSVKGLFTISRDIAKNTVYLQMNSLKPEDTAVYYCNAVRGEKMGYWGQGTQVTVSS,high polyreactivity
25,QVQLVESGGGLVQAGGSLRLSCAASGSTFARNARGWYRQAPGKERELVAAITTRGSSTYYADSVKGRFTISRDNAKNTVYLQMHSLKPEDTAVYYCAADSRRSWYWGGYRQTGMGYWGQGTQVTVSS,high polyreactivity
26,QVQLVESGGGLVQAGGSLRLSCAASGSTFARYAMGWYRHAPGKETELVAGIWNTGRTYYADSVKGRFTISRDNAKNTVYLQMNSLKPEDTAVYYCAALYNSPNVTYYYWGQGTQVTVSS,high polyreactivity
27,QVQLVESGGGLVQAGGSLRLSCAASGSTFARYAMGWYRPAPGKERELVAVIRSGGSTNYADSVKGRFTISRDNAKNTVYLQMNSLKPEDTAGAADQWTIHRWATYGYWGQGTQVTVSS,low polyreactivity
28,QVQLVESGGGLVQAGGSLRLSCAASGSTFARYAMGWYRQAPGKERELVAAISKGGDRTYYADSVKGRFTISRDNAKNTVYLQMNSLKPEDTAVYYCAARYTPRRYYYWGQGTQVTVSS,high polyreactivity
29,QVQLVESGGGLVQAGGSLRLSCAASGSTFARYAMGWYRQAPGKERELVASITQSSGSTYYADSVKGRFTISRDNAKSTVYLQMNSLKPEDTAVYYCAKVISYGPVPDRYDYWGQGTQVTVSS,high polyreactivity
30,QVQLVESGGGLVQAGGSLRLSCAASGSTFARYAMGWYRQAPGKERELVAVITRSGGSTYYADSVKGRFTISRDNAKNTVYLQMNSLKPEDTDVYYCNKYGYKGGVGYDYWGQGTQVTVSS,high polyreactivity
